Experimental data taken from patent US11078465B2, “Alcohol dehydrogenase mutant and application thereof in synthesis of diaryl chiral alcohols” (Jiangnan University, priority 2018, dated 2021).

Legend:
Assay type in all cases: biochemical
[1] = test system: O=C(c1ccc(Cl)cc1)c1ccccn1; assay: Kinetic analysis of alcohol dehydrogenase mutant (CPMK reduction, NADPH absorption at 340 nm); settings: substrate CPMK, pH 7.0, 30° C.
Method: (§1) Adopting a total reaction system of 200 μL, including: 1.0 mM NADPH, 1.0 mM substrate CPMK and sodium phosphate buffer (PBS, 100 mM, pH 7.0), fully and evenly mixing, maintaining at 30° C. for 2 min, adding an appropriate amount of enzyme solution, and detecting the change in light absorption at 340 nm.
(§2) The enzyme activity was calculated by the following formula: Enzyme activity (U)=EW×V×10^3/(6220×I);
(§3) in the formula, EW is the change in absorbance at 340 nm in 1 min; V is the volume of a reaction solution in mL; 6220 is the molar extinction coefficient of NADPH in L/mol·cm); and 1 is the optical path distance in cm. One activity unit (U) corresponds to the amount of enzyme required to catalyze the oxidation of 1 μmol NADPH per minute under the above conditions.
(§4) A column used for purification was a nickel affinity column HisTrap FF crude, and purification was achieved through affinity chromatography using a histidine tag on recombinant protein. The nickel column was equilibrated with a solution A first, a crude enzyme solution was loaded, a penetrating peak was further eluted off using the solution A, and after equilibrium, a solution B (20 mM sodium phosphate, 500 mM NaCl, and 1000 mM imidazole, pH 7.4) was used for gradient elution to elute off the recombinant protein bound to the nickel column, so as to obtain the recombinant alcohol dehydrogenase mutant. The purified protein was subjected to activity measurement (CPMK as substrate, and NADPH as coenzyme) and SDS-PAGE analysis. […] The purified alcohol dehydrogenase protein was then replaced into a Tris-HCl (100 mM, pH 7.0) buffer using a Hi Trap Desalting column (GE Healthcare).
(§5) The activity of KpADH at different substrate concentrations and coenzyme concentrations was determined, and a double reciprocal curve was made based on the reciprocal of activity and substrate concentration to calculate kinetic parameters.
Two mutants of S237A and S237C valuable for modification of asymmetric synthesis R- and S- are obtained by random mutation screening, and the two sites are used as templates for random mutation. […] It can be known by combining the data in Tables 2 and 3 that the 214 site of alcohol dehydrogenase is a site that is important for determining selectivity improvement and inversion.

[2] = test system: O=C(c1ccc(Cl)cc1)c1ccccn1; assay: as above; settings: other: E214G/S237C, substrate CPMK, pH 7.0, 30° C.
[3] = test system: O=C(c1ccc(Cl)cc1)c1ccccn1; assay: Kinetic analysis of alcohol dehydrogenase (CPMK reduction, NADPH absorption at 340 nm); settings: other: WT, substrate CPMK, pH 7.0, 30° C.
Method: as §1, §2, §3, §4, §5

[4] = Kinetic analysis of alcohol dehydrogenase and mutants (NADPH oxidation, 340 nm, double reciprocal curve); settings: substrate CPMK
In short: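 His-tagged recombinant KpADH (wild type or mutant) purified by nickel affinity, desalted into Tris-HCl pH 7.0. Activity measured at 30° C in 100 mM sodium phosphate pH 7.0 with 1.0 mM NADPH and 1.0 mM CPMK by 340 nm NADPH absorbance decrease; kinetic parameters from double reciprocal plots over varied substrate and coenzyme concentrations.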

[5] = Stereoselectivity (ee) of CPMK reduction, chiral liquid chromatography; settings: product configuration in brackets
In short: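 Reaction mixture extracted with ethyl acetate, solvent evaporated, residue taken up in ethanol. Chiral LC and GC give conversion and ee, with ee computed from LC molar concentrations of (S)- and (R)-CPMA.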

[6] = Substrate specificity, specific activity
In short: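 Reductions by alcohol dehydrogenase mutants run with 1.0 mM NADPH and 1.0 mM prochiral carbonyl substrate (e.g., CPMK) in 100 mM sodium phosphate, pH 7.0, at 30° C. Activity followed as absorbance change at 340 nm; 1 U oxidises 1 μmol NADPH per minute, calculated using ε 6220 L/mol·cm.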

[7] = Stereoselectivity on different substrates; settings: configuration in brackets
In short: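 Alcohol dehydrogenase mutants reduced prochiral ketones, including CPMK, aryl pyridyl and diaryl ketones, acetophenones and keto esters. Reactions were extracted into ethyl acetate and redissolved in ethanol. Conversion and ee were determined by chiral liquid and gas chromatography, with ee calculated from (S)- and (R)-CPMA molar concentrations.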

[8] = Stereoselectivity on different substrates; settings: configuration in brackets; remark: listed apart in the source
In short: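 Reaction mixture extracted with ethyl acetate, dried organic phase redissolved in ethanol, then analysed by chiral liquid chromatography and gas chromatography. Values are transformation rate and ee, with ee from LC molar concentrations of (S)- and (R)-CPMA. Substrates were prochiral ketones reduced by alcohol dehydrogenase mutants.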

[9] = Asymmetric reduction in 20 mL biocatalytic system, conversion

alcohol dehydrogenase KpADH (SEQ ID No. 2) mutant S237C (Vanderwaltozyma polyspora DSM 70294; S237C)
Km ([1]; other: S237C): 1010 ± 100 µM | Vmax ([1]; other: S237C): 20.9 µM/min/mg | kcat ([1]; other: S237C): 13.9 ± 0.99 s⁻¹ | kcat/Km ([1]; other: S237C): 13800 ± 250 M⁻¹ s⁻¹

alcohol dehydrogenase KpADH (SEQ ID No. 2) mutant L60F/S237C (Vanderwaltozyma polyspora DSM 70294; L60F/S237C)
Km ([1]; other: L60F/S237C): 1120 ± 20 µM | Vmax ([1]; other: L60F/S237C): 12.6 µM/min/mg | kcat ([1]; other: L60F/S237C): 8.4 ± 0.23 s⁻¹ | kcat/Km ([1]; other: L60F/S237C): 7500 ± 690 M⁻¹ s⁻¹

alcohol dehydrogenase KpADH (SEQ ID No. 2) mutant S237A (Vanderwaltozyma polyspora DSM 70294; S237A)
Km ([1]; other: S237A): 580 ± 30 µM | Vmax ([1]; other: S237A): 36.5 µM/min/mg | kcat ([1]; other: S237A): 24.4 ± 1.26 s⁻¹ | kcat/Km ([1]; other: S237A): 42000 ± 2360 M⁻¹ s⁻¹

alcohol dehydrogenase KpADH (SEQ ID No. 2) mutant A269C/S237C (Vanderwaltozyma polyspora DSM 70294; A269C/S237C)
Km ([1]; other: A269C/S237C): 1560 ± 20 µM | Vmax ([1]; other: A269C/S237C): 22.6 µM/min/mg | kcat ([1]; other: A269C/S237C): 15.4 ± 0.86 s⁻¹ | kcat/Km ([1]; other: A269C/S237C): 9900 ± 360 M⁻¹ s⁻¹

alcohol dehydrogenase KpADH (SEQ ID No. 2) mutant M12, E214G/S237C (Vanderwaltozyma polyspora DSM 70294; E214G/S237C)
Km [2]: 310 ± 20 µM | Vmax [2]: 9.54 µM/min/mg | kcat [2]: 6.3 ± 0.11 s⁻¹ | kcat/Km [2]: 22100 ± 1370 M⁻¹ s⁻¹

alcohol dehydrogenase KpADH (SEQ ID No. 2) mutant H249Y/S237C (Vanderwaltozyma polyspora DSM 70294; H249Y/S237C)
Km ([1]; other: H249Y/S237C): 980 ± 20 µM | Vmax ([1]; other: H249Y/S237C): 16.5 µM/min/mg | kcat ([1]; other: H249Y/S237C): 11 ± 0.83 s⁻¹ | kcat/Km ([1]; other: H249Y/S237C): 11200 ± 980 M⁻¹ s⁻¹

alcohol dehydrogenase KpADH, wild type (WT), SEQ ID No. 2 (Vanderwaltozyma polyspora DSM 70294)
Km [3]: 760 ± 190 µM | Vmax [3]: 21.3 µM/min/mg | kcat [3]: 14.2 ± 1.16 s⁻¹ | kcat/Km [3]: 18700 ± 620 M⁻¹ s⁻¹

B1: E214Y/S237A: tyrosine for glutamate at position 214 and alanine for serine at position 237 of SEQ ID No. 2 (protein)
chain: MSVLISGASGYIAKHIVRVLLEQNYKVIGTVRSQDKADKLLKQYNNPNLSYEIVPEIANLDAFDDIFKKHGKEIKYVIHAASPVNFGAKDLEKDLVIPAINGTKNMFEAIKKYAPDTVERVVMTASYASIMTPHRQNDPTLTLDEETWNPVTEENAYENVFTAYCASKTFAEKEAWKFVKENSDAVKFKLTTIHPSFVFGPQNFDEDVTKKLNYTCEIINGLLHAPFDTKVEKTHFAQFIDVRDVAKTHVLGFQKDELINQRLLLCNGAFSQQDIVNVFNEDFPELKGQFPPEDKDTDLNKGVTGCKIDNEKTKKLLAFEFTPFHKTIHDTVYQILHKEGRV
modifications: Protein translated from synthetic DNA
Kcat [4]: 15.80 ± 0.25 s⁻¹ | Km [4]: 620 ± 20 µM | Vmax [4]: 23.70 ± 0.37 µM/min/mg | e.e. [5]: 99.1 (R) | specific activity ([6]; substrate [drawing 1]): 0.26 U/mg | specific activity ([6]; substrate [drawing 2]): 0.25 U/mg | specific activity ([6]; substrate [drawing 3]): 2.25 U/mg | specific activity ([6]; substrate [drawing 4]): 4.06 U/mg | specific activity ([6]; substrate [drawing 5]): 14.48 U/mg | specific activity ([6]; substrate [drawing 6], 4-chlorophenacyl chloride): 25.70 U/mg | specific activity ([6]; substrate [drawing 7]): 22.02 U/mg | specific activity ([6]; substrate [drawing 8]): 22.61 U/mg | specific activity ([6]; substrate [drawing 9], ethyl 4-chloro-3-oxobutanoate): 7.74 U/mg | Stereoselectivity (ee) ([7]; substrate [drawing 10], acetophenone): 32.1 (R) | Stereoselectivity (ee) ([7]; substrate [drawing 11], 4-chloroacetophenone): 97.9 (R) | Stereoselectivity (ee) ([7]; substrate [drawing 12], 4-chlorobenzoyl chloride): 61.6 (R) | Stereoselectivity (ee) ([7]; substrate [drawing 16], (4-bromophenyl)-(phenyl)-methanone): 98.5 (S) | Stereoselectivity (ee) ([7]; substrate [drawing 17], p-nitrobenzophenone): 99.2 (S) | Stereoselectivity (ee) ([8]; substrate [drawing 13]): 18.2 (R) | Stereoselectivity (ee) ([8]; substrate [drawing 14], likely CPMK (values partly match Table 4)): 99.1 (R) | Stereoselectivity (ee) ([8]; substrate [drawing 15]): 89.3 (S) | Stereoselectivity (ee) ([8]; substrate [drawing 18]): 79.3 (S) | Conversion rate ([9]; 4-nitroacetophenone 10 mM, 1 h): 32% | Conversion rate ([9]; 4-nitroacetophenone 10 mM, 2 h): 48% | Conversion rate ([9]; 4-nitroacetophenone 10 mM, 3 h): 60% | Conversion rate ([9]; 4-nitroacetophenone 10 mM, 4 h): 85% | Conversion rate ([9]; 4-nitroacetophenone 10 mM, 6 h): 95% | Conversion rate ([9]; 4-nitroacetophenone 10 mM, 8 h): 99.8% | Conversion rate ([9]; 4-nitroacetophenone 10 mM, 12 h): >99.9% | Conversion rate ([9]; 4-nitroacetophenone 10 mM, 24 h): >99.9% | Conversion rate ([9]; 4-nitroacetophenone 20 mM, 1 h): 22% | Conversion rate ([9]; 4-nitroacetophenone 20 mM, 2 h): 35.5% | Conversion rate ([9]; 4-nitroacetophenone 20 mM, 3 h): 55.8% | Conversion rate ([9]; 4-nitroacetophenone 20 mM, 4 h): 69.5% | Conversion rate ([9]; 4-nitroacetophenone 20 mM, 6 h): 90.4% | Conversion rate ([9]; 4-nitroacetophenone 20 mM, 8 h): 95.6% | Conversion rate ([9]; 4-nitroacetophenone 20 mM, 12 h): 99.2% | Conversion rate ([9]; 4-nitroacetophenone 20 mM, 24 h): 99.5% | Conversion rate ([9]; 4-nitroacetophenone 50 mM, 1 h): 10.5% | Conversion rate ([9]; 4-nitroacetophenone 50 mM, 2 h): 22.5% | Conversion rate ([9]; 4-nitroacetophenone 50 mM, 3 h): 35.9% | Conversion rate ([9]; 4-nitroacetophenone 50 mM, 4 h): 49.5% | Conversion rate ([9]; 4-nitroacetophenone 50 mM, 6 h): 60.9% | Conversion rate ([9]; 4-nitroacetophenone 50 mM, 8 h): 82.6% | Conversion rate ([9]; 4-nitroacetophenone 50 mM, 12 h): 85.5% | Conversion rate ([9]; 4-nitroacetophenone 50 mM, 24 h): 86.5% | ee in asymmetric synthesis of (R)-CPMA ([9]; 20 mL biocatalytic system, 30° C., pH 7.5): 99.1% | Conversion rate ([9]; CPMK 100 mM, 1 h): 66% | Conversion rate ([9]; CPMK 100 mM, 2 h): 80% | Conversion rate ([9]; CPMK 100 mM, 3 h): 89.5% | Conversion rate ([9]; CPMK 100 mM, 4 h): 94% | Conversion rate ([9]; CPMK 100 mM, 6 h): 96.6% | Conversion rate ([9]; CPMK 100 mM, 8 h): 99.5% | Conversion rate ([9]; CPMK 100 mM, 12 h): >99.9% | Conversion rate ([9]; CPMK 100 mM, 24 h): >99.9% | Conversion rate ([9]; CPMK 200 mM, 1 h): 45.5% | Conversion rate ([9]; CPMK 200 mM, 2 h): 65.5% | Conversion rate ([9]; CPMK 200 mM, 3 h): 75.9% | Conversion rate ([9]; CPMK 200 mM, 4 h): 88.8% | Conversion rate ([9]; CPMK 200 mM, 6 h): 95.6% | Conversion rate ([9]; CPMK 200 mM, 8 h): 99.1% | Conversion rate ([9]; CPMK 200 mM, 12 h): 99.7% | Conversion rate ([9]; CPMK 200 mM, 24 h): >99.9% | Conversion rate ([9]; CPMK 500 mM, 1 h): 25.5% | Conversion rate ([9]; CPMK 500 mM, 2 h): 33.5% | Conversion rate ([9]; CPMK 500 mM, 3 h): 45.8% | Conversion rate ([9]; CPMK 500 mM, 4 h): 59.9% | Conversion rate ([9]; CPMK 500 mM, 6 h): 77.9% | Conversion rate ([9]; CPMK 500 mM, 8 h): 90.2% | Conversion rate ([9]; CPMK 500 mM, 12 h): 95.7% | Conversion rate ([9]; CPMK 500 mM, 24 h): 99.5% | substrate concentration that could be afforded ([9]; p-nitrobenzophenone): 20 mM
